Assay results taken from patent EP4428150A1 (Peptide Logic LLC, dated 2024).

Legend:
cynomolgus monkey PRL [1] = biological target: T1, cynomolgus monkey PRL (cynomolgus monkey, UniProt A0A2K5X975 30-228); test: cell-based or functional assay
T1 sequence: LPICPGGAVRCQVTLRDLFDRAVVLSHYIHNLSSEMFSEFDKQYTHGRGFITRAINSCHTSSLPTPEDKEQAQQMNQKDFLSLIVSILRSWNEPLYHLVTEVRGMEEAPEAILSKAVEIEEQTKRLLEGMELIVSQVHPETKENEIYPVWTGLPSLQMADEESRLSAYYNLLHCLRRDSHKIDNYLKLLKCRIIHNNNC

human prolactin [2] = biological target: T2, human prolactin (human, UniProt P01236 29-227); test: cell-based or functional assay
T2 sequence (looked up): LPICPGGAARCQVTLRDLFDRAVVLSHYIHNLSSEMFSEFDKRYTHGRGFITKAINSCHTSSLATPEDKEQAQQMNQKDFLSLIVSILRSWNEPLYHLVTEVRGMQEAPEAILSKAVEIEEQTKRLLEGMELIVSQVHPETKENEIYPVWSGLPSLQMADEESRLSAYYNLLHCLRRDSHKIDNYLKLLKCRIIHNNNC

human placental lactogen = human placental lactogen (human, UniProt P0DML2 27-217); test: cell-based or functional assay
human placental lactogen, sequence (P0DML2 27-217 limits assumed): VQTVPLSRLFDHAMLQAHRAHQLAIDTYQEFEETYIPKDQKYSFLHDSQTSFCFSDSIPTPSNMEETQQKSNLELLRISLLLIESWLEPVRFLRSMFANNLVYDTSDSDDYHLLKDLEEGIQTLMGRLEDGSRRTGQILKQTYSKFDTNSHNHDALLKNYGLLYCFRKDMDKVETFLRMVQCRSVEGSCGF

human growth hormone = human growth hormone (human, UniProt P01241 27-217); test: cell-based or functional assay
human growth hormone, sequence (P01241 27-217 limits assumed): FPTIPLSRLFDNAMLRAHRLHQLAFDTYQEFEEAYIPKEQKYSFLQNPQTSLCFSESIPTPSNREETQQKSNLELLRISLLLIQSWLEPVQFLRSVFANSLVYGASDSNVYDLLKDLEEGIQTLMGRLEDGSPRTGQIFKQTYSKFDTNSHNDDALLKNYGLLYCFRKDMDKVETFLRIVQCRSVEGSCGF

mouse PRL [3] = biological target: T3, mouse PRL (mouse, UniProt P06879 30-226); test: cell-based or functional assay
T3 sequence (looked up): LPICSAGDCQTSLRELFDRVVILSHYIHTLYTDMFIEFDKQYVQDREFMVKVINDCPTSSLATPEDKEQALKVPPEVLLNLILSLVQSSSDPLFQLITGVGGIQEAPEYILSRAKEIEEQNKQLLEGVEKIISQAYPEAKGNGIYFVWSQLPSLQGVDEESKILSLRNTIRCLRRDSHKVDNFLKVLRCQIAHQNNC

mouse PRL [4] = biological target: T3, mouse PRL; test: bio-layer interferometry (Octet-RED96), antibody captured on anti-human IgG Fc sensors; kinetics not determined
cynomolgus monkey PRL [5] = biological target: T1, cynomolgus monkey PRL; test: bio-layer interferometry (Octet-RED96), antibody captured on anti-human IgG Fc sensors, 1:1 fit
human prolactin [6] = biological target: T2, human prolactin; test: bio-layer interferometry (Octet-RED96), antibody captured on anti-human IgG Fc sensors, 1:1 global fit

IC50 in the in vitro CHO-hPRLR phospho-STAT5 cell signaling assay (cynomolgus monkey PRL [1]): 4.7 nM | IC50 in the in vitro CHO-hPRLR phospho-STAT5 cell signaling assay (human prolactin [2]): 3.1 nM | IC50 in the in vitro CHO-hPRLR phospho-STAT5 cell signaling assay (human placental lactogen): > 3620 nM | IC50 in the in vitro CHO-hPRLR phospho-STAT5 cell signaling assay (human growth hormone): > 150 nM | IC50 in the in vitro CHO-hPRLR phospho-STAT5 cell signaling assay (mouse PRL [3]): > 150 nM | Kd (mouse PRL [4]): > 100 nM | Kd (cynomolgus monkey PRL [5]): 0.565 nM | koff (cynomolgus monkey PRL [5]): 0.000307 s⁻¹ | kon (cynomolgus monkey PRL [5]): 543000 M⁻¹ s⁻¹ | Kd (human prolactin [6]): 0.621 nM | koff (human prolactin [6]): 0.000215 s⁻¹ | kon (human prolactin [6]): 347000 M⁻¹ s⁻¹
B1: Antibody 37 (antibody, human IgG4 S228P, kappa, V domains shown)
VH: QVQLVQSGAEVKKPGASVKVSCKASGYTFSNFWIEWVRQAPGQRLEWMGEIFPGTGSTYYTEKFKVRVTITRDTSASTAYMELSSLRSEDTAVYYCARRGYSDSWFAHWGQGTLVTVSS
VL: DIQMTQSPSSLSASVGDRVTITCRASESVDMYGKSFMHWYQQKPGKAPKLLIYRASTLESGVPSRFSGSGSGTDFTLTISSLQPEDFATYYCQQNVEAPLTFGGGTKVEIKR
notes: Humanized IgG4(S228P), IGHV1-3 heavy and IGKV1-39 light frameworks; also called humanized anti-hPRL antibody
